Series [1] addresses T1, F-HA-Zic2 (UniProt Q62520 1-530). The experiment in a line: EMSA; even at 3-fold excess over ZBS core; Footprinting: 20 mM Tris-HCl pH 8.0, 3 mM MgCl2, 5 mM CaCl2, 100 mM NaCl, 100 mM DTT, 0.1 mM EDTA, 50 ug/ml BSA, 25 C, 30 min; EMSA conditions as in earlier work. Particulars: protein: recombinant; tags: N-terminal FLAG-HA; blunt. A general note: Mobility shift assays separate free from complexed probe on a gel.

A further series has as its target GLI3-ZF-CH6 (GLI3 ZFD) (UniProt P10071 480-632). The experiment in a line: EMSA; preferred over ZBS core; Footprinting: 20 mM Tris-HCl pH 8.0, 3 mM MgCl2, 5 mM CaCl2, 100 mM NaCl, 100 mM DTT, 0.1 mM EDTA, 50 ug/ml BSA, 25 C, 30 min; EMSA conditions as in earlier work. To be noted: protein: recombinant; blunt.
The target of series [2] is T1, F-HA-Zic2. The experiment in a line: competition; against N1; shifted bands disappear completely; Footprinting: 20 mM Tris-HCl pH 8.0, 3 mM MgCl2, 5 mM CaCl2, 100 mM NaCl, 100 mM DTT, 0.1 mM EDTA, 50 ug/ml BSA, 25 C, 30 min; EMSA conditions as in earlier work. Particulars: protein: recombinant; tags: N-terminal FLAG-HA; label: none.
The target in series [3] is T1, F-HA-Zic2. The experiment in a line: competition; against N9; inhibits complex formation; Footprinting: 20 mM Tris-HCl pH 8.0, 3 mM MgCl2, 5 mM CaCl2, 100 mM NaCl, 100 mM DTT, 0.1 mM EDTA, 50 ug/ml BSA, 25 C, 30 min; EMSA conditions as in earlier work. To be noted: protein: recombinant; tags: N-terminal FLAG-HA; label: none.
The target of series [4] is T1, F-HA-Zic2. The series is described as follows: competition; against N8; inhibits complex formation; Footprinting: 20 mM Tris-HCl pH 8.0, 3 mM MgCl2, 5 mM CaCl2, 100 mM NaCl, 100 mM DTT, 0.1 mM EDTA, 50 ug/ml BSA, 25 C, 30 min; EMSA conditions as in earlier work. To be noted: protein: recombinant; tags: N-terminal FLAG-HA; label: none.

T1 sequence (Q62520 whole entry): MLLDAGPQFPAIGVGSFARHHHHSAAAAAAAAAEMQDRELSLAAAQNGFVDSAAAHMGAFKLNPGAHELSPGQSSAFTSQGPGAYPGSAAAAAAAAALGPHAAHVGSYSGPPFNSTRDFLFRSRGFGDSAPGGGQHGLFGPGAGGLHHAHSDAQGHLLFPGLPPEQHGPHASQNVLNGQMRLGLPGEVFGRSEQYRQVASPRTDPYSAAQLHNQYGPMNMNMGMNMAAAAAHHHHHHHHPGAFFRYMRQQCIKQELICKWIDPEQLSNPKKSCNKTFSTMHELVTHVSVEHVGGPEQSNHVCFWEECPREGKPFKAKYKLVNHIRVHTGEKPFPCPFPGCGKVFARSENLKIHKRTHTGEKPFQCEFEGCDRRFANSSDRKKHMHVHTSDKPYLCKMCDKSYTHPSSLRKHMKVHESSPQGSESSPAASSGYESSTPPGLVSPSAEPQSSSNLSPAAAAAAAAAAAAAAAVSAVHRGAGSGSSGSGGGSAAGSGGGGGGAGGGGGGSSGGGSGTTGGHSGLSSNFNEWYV
GLI3-ZF-CH6 (GLI3 ZFD), sequence (P10071 480-632): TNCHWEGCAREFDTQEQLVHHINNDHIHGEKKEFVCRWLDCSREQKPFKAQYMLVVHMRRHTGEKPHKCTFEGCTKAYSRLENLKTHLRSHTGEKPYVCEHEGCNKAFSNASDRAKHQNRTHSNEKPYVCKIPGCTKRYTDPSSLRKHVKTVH

B1: GBS probe (dsDNA)
DNA 1: CGTCTTGGGTGGTCTCCCTC
DNA 2: GAGGGAGACCACCCAAGACG
As for B1, the binding result in the series with F-HA-Zic2 [1] is reported as “no binding”; with GLI3-ZF-CH6 (GLI3 ZFD), “binds”.

B2: cp4 (-1728 to -1709) (dsDNA)
DNA 1: CCCGCACCACATGAGTCCCG
DNA 2: CGGGACTCATGTGGTGCGGG
In the case of B2, the binding result with F-HA-Zic2 [2] is “binds”.

B3: cp11 (-1830 to -1811) (dsDNA)
DNA 1: CCCGAGTCCCCGGCGGATGT
DNA 2: ACATCCGCCGGGGACTCGGG
Turning to B3, the binding result with F-HA-Zic2 [3] is on record as “binds”.

B4: cp8 (-1688 to -1669) (dsDNA)
DNA 1: GTCATCCCCTGCCGGGTCCC
DNA 2: GGGACCCGGCAGGGGATGAC
Take B4: in the series with F-HA-Zic2 [4], the binding result is listed as “binds”.

The record behind these values is article PMC5794963, “Link between the causative genes of holoprosencephaly: Zic2 directly regulates Tgif1 expression”.
